From US20250319163A1, “TREATMENT OF TYPE 2 DIABETES MELLITUS” (SANOFI, priority 2019, published 2025)

Experiments:
[1] = test system: Japanese patients with type 2 diabetes mellitus inadequately controlled on oral antidiabetic drugs; experiment: EFC14114: documented symptomatic hypoglycemia; assay type: in vivo, human; conditions: plasma glucose ≤70 mg/dL [[…]], on-treatment period; for Documented symptomatic hypoglycemia: patients with events, %: Safety population
[2] = test system: Japanese patients with type 2 diabetes mellitus inadequately controlled on oral antidiabetic drugs; experiment: EFC14114: treatment-emergent adverse events; conditions: Safety population; for Patients with any TEAE, %: overview of adverse event profile
[3] = test system: Japanese patients with type 2 diabetes mellitus inadequately controlled on oral antidiabetic drugs; experiment: EFC14114: mean change in fasting plasma glucose from baseline to Week 26; assay type: in vivo, human; conditions: mITT population, MMRM
[4] = test system: Japanese patients with type 2 diabetes mellitus inadequately controlled on oral antidiabetic drugs; experiment: EFC14114: mean change in HbA1c from baseline to Week 26; assay type: in vivo, human; conditions: on-treatment period, mITT population
[5] = test system: Japanese patients with type 2 diabetes mellitus inadequately controlled on oral antidiabetic drugs; experiment: EFC14114: mean change in 2-hour postprandial plasma glucose during a standardized meal test; assay type: in vivo, human; conditions: mITT population, ANCOVA, LOCF
[6] = SGLT2 inhibitor use at screening: No
[7] = SGLT2 inhibitor use at screening: Yes

## Gly(A21)-Arg(B31)-Arg(B32) human insulin [Insulin Glargine]
[1]; [6]
  Documented symptomatic hypoglycemia: Number of events: 62
  Documented symptomatic hypoglycemia: Number of events per patient year: 0.61
  Documented symptomatic hypoglycemia: Number of patients with events per patient year: 0.28
  Documented symptomatic hypoglycemia: patients with events, %: 14.1%
[1]; [7]
  Documented symptomatic hypoglycemia: Number of events: 8
  Documented symptomatic hypoglycemia: Number of events per patient year: 0.29
  Documented symptomatic hypoglycemia: Number of patients with events per patient year: 0.11
  Documented symptomatic hypoglycemia: patients with events, %: 5.4%
[2]; [6]
  Patients with TEAE: Any class, %: (63.4%)
  Patients with TEAE: Back pain (PT), %: (2.9%)
  Patients with TEAE: Constipation (PT), %: (1.5%)
  Patients with TEAE: Dental caries (PT), %: (2.4%)
  Patients with TEAE: Diarrhoea (PT), %: (2.9%)
  Patients with TEAE: Dizziness (PT), %: (3.4%)
  Patients with TEAE: Dyspepsia (PT), %: (0.5%)
  Patients with TEAE: Fatigue (PT), %: (2.0%)
  Patients with TEAE: Gastrointestinal disorders (SOC), %: (15.6%)
  Patients with TEAE: General disorders and administration site conditions (SOC), %: (7.3%)
  Patients with TEAE: Headache (PT), %: (2.0%)
  Patients with TEAE: Hyperhidrosis (PT), %: (2.9%)
  Patients with TEAE: Infections and infestations (SOC), %: (35.6%)
  Patients with TEAE: Influenza (PT), %: (1.5%)
  Patients with TEAE: Metabolism and nutrition disorders (SOC), %: (2.9%)
  Patients with TEAE: Musculoskeletal and connective tissue disorders (SOC), %: (12.2%)
  Patients with TEAE: Nasopharyngitis (PT), %: (25.4%)
  Patients with TEAE: Nausea (PT), %: (1.5%)
  Patients with TEAE: Nervous system disorders (SOC), %: (9.3%)
  Patients with TEAE: Pharyngitis (PT), %: (1.0%)
  Patients with TEAE: Skin and subcutaneous tissue disorders (SOC), %: (9.8%)
  Patients with any TEAE leading to permanent treatment discontinuation, %: 0.5%
  Patients with any serious TEAE, %: 3.4%
  Patients with any TEAE, %: 63.4%
[2]; [7]
  Patients with TEAE: Any class, %: (64.3%)
  Patients with TEAE: Back pain (PT), %: (5.4%)
  Patients with TEAE: Dental caries (PT), %: (1.8%)
  Patients with TEAE: Gastrointestinal disorders (SOC), %: (12.5%)
  Patients with TEAE: General disorders and administration site conditions (SOC), %: (5.4%)
  Patients with TEAE: Headache (PT), %: (5.4%)
  Patients with TEAE: Hyperhidrosis (PT), %: (1.8%)
  Patients with TEAE: Infections and infestations (SOC), %: (33.9%)
  Patients with TEAE: Influenza (PT), %: (1.8%)
  Patients with TEAE: Metabolism and nutrition disorders (SOC), %: (1.8%)
  Patients with TEAE: Musculoskeletal and connective tissue disorders (SOC), %: (12.5%)
  Patients with TEAE: Nasopharyngitis (PT), %: (17.9%)
  Patients with TEAE: Nausea (PT), %: (3.6%)
  Patients with TEAE: Nervous system disorders (SOC), %: (10.7%)
  Patients with TEAE: Pharyngitis (PT), %: (5.4%)
  Patients with TEAE: Skin and subcutaneous tissue disorders (SOC), %: (8.9%)
  Patients with any TEAE leading to permanent treatment discontinuation, %: 1.8%
  Patients with any serious TEAE, %: 1.8%
  Patients with any TEAE, %: 64.3%
[3]; [6]
  Mean change in fasting plasma glucose from baseline to Week 26, LSMean (SE): −1.46 (0.104) mmol/L
[3]; [7]
  Mean change in fasting plasma glucose from baseline to Week 26, LSMean (SE): −1.01 (0.205) mmol/L
[4]; [6]
  Mean change in HbA1c from baseline to Week 26, LSMean (SE): −0.83 (0.047) %
[4]; [7]
  Mean change in HbA1c from baseline to Week 26, LSMean (SE): −0.49 (0.091) %
[5]; [6]
  Mean change in 2-hour postprandial plasma glucose during a standardized meal test from baseline to Week 26, LSMean (SE): −1.29 (0.185) mmol/L
[5]; [7]
  Mean change in 2-hour postprandial plasma glucose during a standardized meal test from baseline to Week 26, LSMean (SE): −1.38 (0.363) mmol/L
